Results published in patent US20170066831A1 (Janssen / Centocor, published 2017).
Changes are numbered by the printed parent chain. Numbers in names are those of the source. Read-outs that look alike come from different tables or passages of the source.

T1: mouse ST2L extracellular domain (mouse, UniProt P14719 28-326)
T1 construct: also called mouse ST2L-ECD; muST2L-ECD
T1 sequence: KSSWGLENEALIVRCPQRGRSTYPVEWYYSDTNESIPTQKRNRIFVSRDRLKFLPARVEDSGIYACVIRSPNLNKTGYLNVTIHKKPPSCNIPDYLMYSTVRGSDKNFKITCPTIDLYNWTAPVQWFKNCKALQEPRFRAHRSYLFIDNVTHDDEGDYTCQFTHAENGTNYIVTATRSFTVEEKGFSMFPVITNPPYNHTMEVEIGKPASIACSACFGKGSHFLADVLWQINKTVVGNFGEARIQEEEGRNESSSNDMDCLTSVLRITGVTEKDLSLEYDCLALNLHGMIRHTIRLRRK

T2: human ST2L extracellular domain with C-terminal His6 tag (human, UniProt Q01638 19-328)
T2 construct: also called huST2L-ECD; ST2L-ECD
T2 sequence: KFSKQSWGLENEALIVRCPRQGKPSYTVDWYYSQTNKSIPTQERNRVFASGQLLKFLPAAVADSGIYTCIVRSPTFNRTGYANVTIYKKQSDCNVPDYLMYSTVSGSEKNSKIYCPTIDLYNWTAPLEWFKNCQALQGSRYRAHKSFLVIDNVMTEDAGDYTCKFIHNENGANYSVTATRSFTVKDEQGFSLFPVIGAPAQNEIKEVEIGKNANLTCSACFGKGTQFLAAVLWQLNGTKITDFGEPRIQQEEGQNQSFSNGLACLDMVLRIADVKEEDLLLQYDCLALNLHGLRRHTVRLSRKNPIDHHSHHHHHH

T3: cynomolgus (Macaca fascicularis) ST2L extracellular domain with C-terminal His6 tag (Macaca fascicularis (cynomolgus), UniProt Q01638 19-321 (human entry))
T3 construct: also called cyno ST2L-ECD; cynoST2L-ECD
T3 chain: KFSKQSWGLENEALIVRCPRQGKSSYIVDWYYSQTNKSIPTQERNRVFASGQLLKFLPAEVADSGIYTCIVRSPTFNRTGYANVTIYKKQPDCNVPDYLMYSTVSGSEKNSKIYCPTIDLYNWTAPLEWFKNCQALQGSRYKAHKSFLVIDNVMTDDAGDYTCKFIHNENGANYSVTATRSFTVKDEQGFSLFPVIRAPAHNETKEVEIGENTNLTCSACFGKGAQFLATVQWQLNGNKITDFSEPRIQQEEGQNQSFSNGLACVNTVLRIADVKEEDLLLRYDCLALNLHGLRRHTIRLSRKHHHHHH

T4: human ST2L, full length, on cells (human, UniProt Q01638 19-556)
T4 sequence: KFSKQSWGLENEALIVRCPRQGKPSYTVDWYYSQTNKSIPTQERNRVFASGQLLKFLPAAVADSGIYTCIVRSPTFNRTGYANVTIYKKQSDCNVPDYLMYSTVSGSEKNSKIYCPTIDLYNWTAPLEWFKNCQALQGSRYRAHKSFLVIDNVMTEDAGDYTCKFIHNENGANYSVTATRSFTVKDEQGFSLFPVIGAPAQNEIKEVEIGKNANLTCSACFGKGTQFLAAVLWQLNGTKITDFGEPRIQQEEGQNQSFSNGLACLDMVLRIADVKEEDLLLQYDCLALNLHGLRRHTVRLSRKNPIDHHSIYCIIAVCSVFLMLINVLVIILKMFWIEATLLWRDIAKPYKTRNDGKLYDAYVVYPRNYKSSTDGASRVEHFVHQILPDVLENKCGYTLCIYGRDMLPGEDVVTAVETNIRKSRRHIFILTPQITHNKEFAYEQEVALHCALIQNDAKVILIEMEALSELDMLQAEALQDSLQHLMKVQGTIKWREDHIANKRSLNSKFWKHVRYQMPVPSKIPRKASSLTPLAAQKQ

B1: ST2M48 (antibody, V domains shown)
VH: EVQLVQSGAEVKKPGESLKISCKGSGYSFTSYWIGWVRQMPGKGLEWMGIIYPGDSYTRYSPSFQGQVTISADKSISTAYLQWSSLKASDTAMYYCARLSGRFDYWGQGTLVTVSS
VL: EIVLTQSPATLSLSPGERATLSCRASQSVRDALAWYQQKPGQAPRLLIYFASNRATGIPARFSGSGSGTDFTLTISSLEPEDFAVYYCQQFNTWPITFGQGTKVEIK
notes: Phage-derived Fab converted to IgG
B2: STLM226 (antibody, V domains shown)
VH: EVQLVQSGAEVKKPGATVKISCKVSAFNIKDDYMHWVQQAPGKGLEWMGRIDPAIGNTEYAEKFQGRVTITADTSTDTAYMELSSLRSEDTAVYYCATGDFYAMAYWGQGTLVTVSS
VL: DIQMTQSPSSLSASVGDRVTITCITNTDIDDVIHWYQQKPGKAPKLLIYEGNTLRPGVPSRFSGSGSGTDFTLTISSLQPEDFATYYCLQSDNLLTFGQGTKLEIK
notes: VH STLH201 + VL STLL280
B3: STLM230 (antibody, V domains shown)
VH: B2 VH
VL: B2 VL with L94M
notes: VH STLH201 + VL STLL274
B4: STLM227 (antibody, V domains shown)
VH: B2 VH
VL: B2 VL with M4L, S10F, D70E, L94M
notes: VH STLH201 + VL STLL277
B5: STLM231 (antibody, V domains shown)
VH: B2 VH
VL: B2 VL with A43V, F83V, L94M
notes: VH STLH201 + VL STLL273; also called S1LM231
B6: STLM232 (antibody, V domains shown)
VH: B2 VH
VL: B2 VL with L73F, F83I, L94M
notes: VH STLH201 + VL STLL272
B7: STLM229 (antibody, V domains shown)
VH: B2 VH
VL: B2 VL with L11V, L94M
notes: VH STLH201 + VL STLL275
B8: STLM228 (antibody, V domains shown)
VH: B2 VH
VL: B2 VL with S10T, D70E, E81D, L94M
notes: VH STLH201 + VL STLL276
B9: C2521 (antibody, V domains shown)
VH: QIQLQQSGPELVRPGTSVKISCKASGYTFLTYWMNWVKQRPGQGLEWIGQIFPASGSTYYNEMFKDKATLTVDTSSSTAYMQLSSLTSEDTAVYFCARSENIYYINFQYYFAYWGQGTTLTVSS
VL: ILLTQSPAILSVSPGERVSFSCRASQNIGTRMHWYQQRTNGSPRLLIKYASESISGIPSRFSGSGSGTDFTLTISSVESEDIADYYCQQSNTWPFTFGSGTKLEIK
notes: Mouse hybridoma antibody; also called C2521A
B10: STLM210 (antibody, V domains shown)
VH: EVQLLESGGGLVQPGGSLRLSCAASGFTFSDDAMIWVRQAPGKGLEWVSYIGGNGGTTYYADSVKGRFTISRDNSKNTLYLQMNSLRAEDTAVYYCARDPWSTEGSFFVLDYWGQGTLVTVSS
VL: EIVLTQSPATLSLSPGERATLSCRASQSVDDDLAWYQQKPGQAPRLLIYDASNRATGIPARFSGSGSGTDFTLTISSLEPEDFAVYYCQQYNDAITFGQGTKVEIK
notes: frameworks VH3-23 / Vk-L6
B11: STLM212 (antibody, V domains shown)
VH: B10 VH with D31V, D32Y, A33D, Y50T, G52R, N54E, T57G
VL: B10 VL
notes: frameworks VH3-23 / Vk-L6
B12: C2519 (antibody, V domains shown)
VH: EFQLQQSGPELVKPGASVKISCKASGYSFTDYNMNWVKQSHGKSLEWIGNINPYYGSTTYNQKFKGKATLTVDKSSNTAYMHLNSLTSEDSAVYYCAREGDTYLAWFAYWGQGTLVTVSA
VL: DVLMTQTPLSLPVSLGDQASISCRSSQSIVYSNGNTYLEWYLQKPGQSPKLLIYKVSNRFSGVPDRFSGSGSGTDFTLKISRVEAEDLGVYYCFQGSHVPPTFGGGTKLEIK
notes: Mouse hybridoma antibody; also called C2519A

Experiments:
[1] = biological target: T1, mouse ST2L extracellular domain; assay: domain binding assay
Procedure: Antibody binding to ST2L domain I, II and III was determined using standard capture ELISA assay using electrochemiluminescent detection format (Meso-Scale Discovery (MSD) technology). 10 μg/mL of each antibody was coated onto each well of an MSD HighBind plate (5 μL/well) for 2 hr at room temperature. […] The plate was covered with aluminum foil and incubated for 1 hr at room temperature with gentle shaking. The plate was then washed 3 times with HEPES wash buffer. MSD read buffer (150 μl) was added to each well, and the plate was then read using an MSD Sector Imager 6000.

[2] = biological target: T2, human ST2L extracellular domain with …; assay: SPR, mAb captured, ST2L-ECD in solution
[3] = biological target: T3, cynomolgus (Macaca fascicularis) ST2L …; assay: SPR, mAb captured, ST2L-ECD in solution
[4] = biological target: T4, human ST2L, full length, on cells; assay: cell-based or functional assay
[5] = biological target: T2, human ST2L extracellular domain with …; assay: SPR, mAb captured, ST2L-ECD in solution; remark: listed apart in the source
[6] = biological target: T3, cynomolgus (Macaca fascicularis) ST2L …; assay: SPR, mAb captured, ST2L-ECD in solution
[7] = biological target: T2, human ST2L extracellular domain with …; assay: RLB ELISA: biotinylated IL-33 on coated huST2L-ECD, antibody titrated
Procedure: 96-well plate was coated with 50 μl of 4 μg/ml human ST2L-ECD (amino acids 19-328 of SEQ ID NO: 1) or 2 μg/ml cyno ST2L-ECD (amino acids 19-321 of SEQ ID NO: 2) having C-terminal His₆ tag in bicarbonate buffer at 4° C. for 16 hrs. All subsequent steps were performed at room temperature. Plate was blocked with 200 μl blocking buffer, and was washed 3 times with 300 μl of wash buffer containing PBS+0.05% Tween. 30 μl of various dilutions of anti-ST2L mAbs were added to the wells and incubated for 1 hour. For human receptor-ligand binding assay 20 μl of biotinylated human IL-33 (residues 112-270 of SEQ ID NO: 3) was added at 100 ng/ml final concentration and incubated for 30 minutes. For cyno receptor-ligand binding assay 20 μl of biotinylated cyno IL-33 (residues 112-269 of SEQ ID NO: 4) was added at 200 ng/ml final concentration and incubated for 30 minutes. The plate was washed 3 times with 300 μl of wash buffer. 50 μl of 0.2 μg/ml Streptavidin-HRP (Jackson Immunoresearch) was added and incubated for 30 min. The plate was washed 3 times with 300 μl of wash buffer containing PBS+0.05% Tween. 50 μl of TMB substrate (EMD Biosciences) was added to each well. Reaction was stopped by the addition of 100 μl of 0.2N Sulfuric Acid. OD450 were measured using Envision plate reader (Perkin Elmer).

Row | Binder | binding result [1] | Kd [2] [nM] | koff [2] [s⁻¹] | kon [2] [M⁻¹ s⁻¹] | Kd [3] [nM] | koff [3] [s⁻¹] | kon [3] [M⁻¹ s⁻¹] | RGA IC50 [4] [µg/mL] | Kd [5] [nM] | koff [5] [s⁻¹] | kon [5] [M⁻¹ s⁻¹] | Kd [6] [nM] | koff [6] [s⁻¹] | kon [6] [M⁻¹ s⁻¹] | IC50 [7] [µg/mL]
1 | B1 | binds | 0.056 | 7.33e-05 | 1.32e+06 | 0.257 | 0.00265 | 1.03e+07 |  |  |  |  |  |  |  | 
2 | B2 |  |  |  |  |  |  |  | 0.25 | 0.09 | 0.00193 | 2.16e+07 | 0.301 | 0.0301 | 1e+08 | 0.26
3 | B3 |  |  |  |  |  |  |  | 0.15 | 0.038 | 0.000426 | 1.11e+07 | 0.144 | 0.0073 | 5.06e+07 | 0.28
4 | B4 |  |  |  |  |  |  |  | 0.23 | 0.064 | 0.0017 | 2.66e+07 | 0.294 | 0.0294 | 1e+08 | 0.17
5 | B5 |  |  |  |  |  |  |  | 1.1 | 0.046 | 0.000913 | 1.97e+07 | 0.172 | 0.0143 | 8.27e+07 | 0.26
6 | B6 |  |  |  |  |  |  |  | 0.15 | 0.025 | 0.000449 | 1.78e+07 | 0.08 | 0.00797 | 1e+08 | 0.31
7 | B7 |  |  |  |  |  |  |  | 0.32 | 0.035 | 0.000445 | 1.29e+07 | 0.085 | 0.0085 | 1e+08 | 0.29
8 | B8 |  |  |  |  |  |  |  | 0.28 | 0.052 | 0.00104 | 2.01e+07 | 0.155 | 0.0155 | 1e+08 | 0.2
9 | B9 |  | 0.079 | 4.9e-05 | 618000 | 3.71 | 0.00166 | 447000 |  |  |  |  |  |  |  | 
10 | B10 |  |  |  |  |  |  |  | 2.1 | 0.019 | 0.000227 | 1.21e+07 | 0.009 | 0.000528 | 5.7e+07 | 0.3
11 | B11 |  |  |  |  |  |  |  | 4.32 | 0.032 | 0.000398 | 1.24e+07 | 0.024 | 0.000346 | 1.43e+07 | 0.33
12 | B12 |  | 0.18 | 8.7e-05 | 483000 | 44.8 | 0.0032 | 71400 |  |  |  |  |  |  |  | 
